From patent publication US20100233154A1, “TARGETED BINDING AGENTS DIRECTED TO HEPARANASE AND USES THEREOF 463” (MedImmune Limited, priority 2008, published 2010)

Experiments:
HCT116 xenograft = experiment: Subcutaneous xenograft tumour growth, HCT116; type: in vivo, SCID mice; conditions: once weekly i.p.; 10E9.1 at 15 mg per kg
Procedure: MCF7-Hpa1#19 and HCT116 tumour cells were harvested from sub-confluent cultures. A total of 5×10^6 (MCF7-Hpa1#19) or 10^7 (HCT116) tumour cells were inoculated subcutaneously into the flank of male SCID mice. HCT116 tumour cells were implanted in PBS; […] cells were implanted in PBS containing 50% matrigel.
When tumours had attained ˜200 mm^3, tumour bearing mice were randomised into treatment groups and dosed with the following; PBS; an isotype matched control IgG2 antibody, 15 mg per kg; anti-heparanase antibody 10E9.1, 7.5 or 15 mg per kg. All treatments were administered once weekly i.p. Tumour growth was measured twice per week using calipers and tumour volumes calculated according to an ellipsoid volume is formula (3.142/6×length×width×width) from measures of the largest tumour diameter and two opposing widths (FIG. 11).

murine heparanase = biological target: T1, murine heparanase (Mus musculus, UniProt Q6YGZ1); experiment: Cross species capture ELISA, murine heparanase; type: binding; conditions: min 0.06, max 0.9 OD units
T1 construct: made in house; host or cells: Hek293 cells (conditioned medium), inferred for the ELISA
T1 sequence (Q6YGZ1 28-535): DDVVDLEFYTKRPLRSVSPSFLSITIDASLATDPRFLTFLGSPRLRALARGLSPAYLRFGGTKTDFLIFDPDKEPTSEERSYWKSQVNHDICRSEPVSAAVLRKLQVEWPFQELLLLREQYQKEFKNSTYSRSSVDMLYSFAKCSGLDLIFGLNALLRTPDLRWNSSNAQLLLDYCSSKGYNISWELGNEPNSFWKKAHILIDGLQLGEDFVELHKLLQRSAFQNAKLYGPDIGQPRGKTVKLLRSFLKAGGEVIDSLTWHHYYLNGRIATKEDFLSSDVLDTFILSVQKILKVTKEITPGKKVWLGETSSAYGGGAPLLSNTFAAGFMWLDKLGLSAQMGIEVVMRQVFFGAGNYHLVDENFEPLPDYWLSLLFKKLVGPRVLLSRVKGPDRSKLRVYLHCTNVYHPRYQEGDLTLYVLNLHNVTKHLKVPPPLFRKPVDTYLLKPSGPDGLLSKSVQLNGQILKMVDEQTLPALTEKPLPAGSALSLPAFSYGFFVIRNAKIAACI
Procedure: (§1) Initially, cross species binding to human, murine and cynomolgus heparanase was determined in an ELISA assay in which heparanase was captured onto plates using a rabbit anti-heparanase antibody (Raybiotech, Cat. IP-14-155). Exhaustive supernatants were added to the plates at a final dilution of 1:5 and bound antibody detected with a rabbit anti-human IgG Fc.

[1] = test system: precursor (65 kDa) and active (50 kDa) heparanase; experiment: Immunoprecipitation and Western blotting of heparanase from cell lysates; type: binding, human; conditions: 10 μg antibody, 400 μg lysate, MCF7 and MDA MB231 parental and heparanase transfected cells
Procedure: Briefly, protein lysates (400 μg in RIPA lysis buffer—137 mM NaCl, 20 mM Tris pH7.4, 10% glycerol, 1% Triton, 0.5% Sodium deoxycholate, 0.1% SDS, 2 mM EDTA, 1 mM dithiothreitol, 4 mM pefabloc, 10 mM glycerol-2-phosphate, 5 mM NaF and protease inhibitor cocktail) from both parental and heparanase transfected cells were incubated with 10 μg IgG2 control or anti-heparanase (10E9.1) antibodies for 1 hour at 4° C. Following immunoprecipitation with protein G agarose beads and washing with RIPA buffer, samples were separated on 10% bis-tris gels and transferred to nitrocellulose for Western blotting. Heparanase was detected using an anti-heparanase polyclonal antibody (Biochain Cat. No. Z5010104), that recognises both precursor and active heparanase.

[2] = test system: HCT116 human colorectal tumour cells; experiment: FACS binding to cell surface heparanase, HCT116; type: cell-based; conditions: 5 or 10 μg per ml, 2 hrs at 37° C.
Procedure: (§2) Although heparanase is found as a secreted protein, a proportion of heparanase is found in conjunction with cell surface heparan sulfate. The ability of anti-human heparanase antibodies to bind to cell surface heparanase was tested in a FACS assay. HT1080 human fibrosarcoma cells, HCT116 human colorectal tumour cells and B16F10 AP3 murine melanoma cells were each seeded into 6-well plates and cultured for 48 hrs prior to the addition of anti-heparanase antibody 10E9.1 or control IgG2 antibody (Sigma Cat. No. 1504-1MG). Antibodies were added to the cells to a final concentration of 5 or 10 μg per ml and incubated with the cells for 2 hrs at 37° C. The cells were then washed with phosphate buffered saline (PBS) and harvested by incubation with trypsin. The cells were pelleted by centrifugation and resuspended in 0.5 ml PBS, 0.1% BSA containing 1/200 dilution of AlexaFluor 488 anti-human IgG. The cells were incubated for 1 hr at room temperature, washed with PBS/BSA, resuspended in PBS and analysed by FACS. […] The differences likely reflect a lower affinity for murine heparanase in addition to any differences in absolute heparanase expression.

human heparanase = biological target: T2, human heparanase (Homo sapiens, UniProt Q9Y251); experiment: Cross species capture ELISA, human heparanase; type: binding
T2 sequence (Q9Y251 36-543): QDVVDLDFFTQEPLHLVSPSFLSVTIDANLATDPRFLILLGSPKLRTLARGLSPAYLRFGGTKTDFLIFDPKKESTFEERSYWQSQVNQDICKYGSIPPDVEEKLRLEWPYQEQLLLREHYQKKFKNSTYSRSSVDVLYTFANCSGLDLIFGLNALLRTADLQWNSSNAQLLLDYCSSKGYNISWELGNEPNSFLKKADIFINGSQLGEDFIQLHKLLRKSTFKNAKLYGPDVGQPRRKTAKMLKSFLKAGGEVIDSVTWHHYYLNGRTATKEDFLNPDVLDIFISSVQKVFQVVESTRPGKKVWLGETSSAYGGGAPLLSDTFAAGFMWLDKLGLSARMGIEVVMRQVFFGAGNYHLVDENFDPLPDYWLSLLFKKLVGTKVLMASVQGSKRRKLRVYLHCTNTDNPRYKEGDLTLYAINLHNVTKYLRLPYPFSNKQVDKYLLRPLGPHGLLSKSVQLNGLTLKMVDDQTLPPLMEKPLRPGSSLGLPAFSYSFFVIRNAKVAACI
Procedure: as §1

[3] = test system: HT1080 human fibrosarcoma cells; experiment: FACS binding to cell surface heparanase, HT1080; type: cell-based; conditions: 5 or 10 μg per ml, 2 hrs at 37° C.
Procedure: as §2

MDA MB231-Hpa1#4 cells = experiment: Heparanase expression in cells cultured with antibody (Western blot); type: cell-based, human; conditions: 25 μg per ml antibody, 72 hrs, compared to untreated or IgG2 control
Procedure: MDA MB231-Hpa1#4 cells were cultured in the presence of 25 μg per ml anti-human heparanase antibody or control IgG2 antibody (Sigma Cat. No. 1504-1MG) for 72 hrs. Following the removal of culture medium, protein extracts were prepared from the cells in 100 μl RIPA buffer and separated on […] gels and transferred to nitrocellulose as described above. Western blots were probed with an anti-heparanase antibody that detected only pro-heparanase (SantaCruz Cat. No. SC25825).

- Binding to heparanase Mouse (murine heparanase): 0.49 OD units
- Binding to heparanase Human (human heparanase): 0.63 OD units
B1: 10E9.1: fully human anti-heparanase monoclonal antibody, G2κ; VH SEQ ID NO 2, VL SEQ ID NO 4; ATCC PTA-9489 (antibody, listed as Homo Sapiens, V domains shown)
VH: QVQLVQSGAEVKKPGASVKVSCKVSGYSLTELSIHWVRQAPGKGLEWMGGFDPEDGEIIFAQKFQGRVTLTEDISLDTAYMEVSSLRSEDTAVYYCATEGHDSGDYVGYYYYGLDVWGQGTTVTVSS
VL: DIQMTQSPSSLSASVGDRVTITCRASQDIRNFLAWYQQKPGKLPKLLIYAASTLQSGVPSRFSGSGSGTDFTLTISSLQPEDVASYYCQSHNSVPFTFGPGTKVDIR
notes: fully human anti-heparanase monoclonal antibody, G2κ; ATCC PTA-9489
- Tumour growth inhibition (HCT116 xenograft): not inhibited
- Immunoprecipitation of heparanase from cell lysates [1]: immunoprecipitation of both precursor and active forms of heparanase
- Binding to cells by FACS [2]: bind extensively
- Binding to cells by FACS [3]: bind extensively
- Inhibition of heparanase expression (MDA MB231-Hpa1#4 cells): significant inhibition of heparanase expression
